Laboratory results: article PMC10916433 (2023)

B1: GFP‐tagged wild‐type RAGE (AAV‐RAGE‐Wt) [mouse] / receptor‐interacting serine/threonine protein kinase 1 (RIPK1), endogenous [mouse (endogenous in BV2 cells and in mouse hippocampus)] (parent complex)
chain 1: GQNITARIGEPLVLSCKGAPKKPPQQLEWKLNTGRTEAWKVLSPQGGPWDSVARILPNGSLLLPATGIVDEGTFRCRATNRRGKEVKSNYRVRVYQIPGKPEIVDPASELTASVPNKVGTCVSEGSYPAGTLSWHLDGKLLIPDGKETLVKEETRRHPETGLFTLRSELTVIPTQGGTHPTFSCSFSLGLPRRRPLNTAPIQLRVREPGPPEGIQLLVEPEGGIVAPGGTVTLTCAISAQPPPQVHWIKDGAPLPLAPSPVLLLPEVGHEDEGTYSCVATHPSHGPQESPPVSIRVTETGDEGPAEGSVGESGLGTLALALGILGGLGVVALLVGAILWRKRQPRREERKAPESQEDEEERAELNQSEEAEMPENGAGGP
chain 2: MQPDMSLDNIKMASSDLLEKTDLDSGGFGKVSLCYHRSHGFVILKKVYTGPNRAEYNEVLLEEGKMMHRLRHSRVVKLLGIIIEEGNYSLVMEYMEKGNLMHVLKTQIDVPLSLKGRIIVEAIEGMCYLHDKGVIHKDLKPENILVDRDFHIKIADLGVASFKTWSKLTKEKDNKQKEVSSTTKKNNGGTLYYMAPEHLNDINAKPTEKSDVYSFGIVLWAIFAKKEPYENVICTEQFVICIKSGNRPNVEEILEYCPREIISLMERCWQAIPEDRPTFLGIEEEFRPFYLSHFEEYVEEDVASLKKEYPDQSPVLQRMFSLQHDCVPLPPSRSNSEQPGSLHSSQGLQMGPVEESWFSSSPEYPQDENDRSVQAKLQEEASYHAFGIFAEKQTKPQPRQNEAYNREEERKRRVSHDPFAQQRARENIKSAGARGHSDPSTTSRGIAVQQLSWPATQTVWNNGLYNQHGFGTTGTGVWYPPNLSQMYSTYKTPVPETNIPGSTPTMPYFSGPVADDLIKYTIFNSSGIQIGNHNYMDVGLNSQPPNNTCKEESTSRHQAIFDNTTSLTDEHLNPIRENLGRQWKNCARKLGFTESQIDEIDHDYERDGLKEKVYQMLQKWLMREGTKGATVGKLAQALHQCCRIDLLNHLIRASQS

Variants of: B1
Test: co-immunoprecipitation (IP: RIPK1, IB: RAGE), optical density of blot; hippocampus of db/db + RAGE-KD mice injected with AAV-RAGE-Wt or AAV-RAGE-Mut; n = 4; mean ± S.D; parent: 1.9; read off a plot
With chain 1 R340A, chain 1 K341A, chain 1 R342A, chain 1 Q343A, chain 1 P344A, chain 1 R345A the response was ~1 fold change to the db/db + RAGE-KD group.

Variants of: B1
Test: co-immunoprecipitation (IP: RAGE, IB: RIPK1), optical density of blot; hippocampus of db/db + RAGE-KD mice injected with AAV-RAGE-Wt or AAV-RAGE-Mut; n = 4; mean ± S.D; parent: 2.7; read off a plot
chain 1 R340A, chain 1 K341A, chain 1 R342A, chain 1 Q343A, chain 1 P344A, chain 1 R345A was tested, and the response was ~0.95 fold change to the db/db + RAGE-KD group.
